Measured values published in patent US20220162323A1 (Regeneron, published 2022).

Assays:
[1] = target: T1, FGFR2b on SNU-16 and MFM-223 cells (human, UniProt P21802 22-821); experiment: cell-based or functional assay
T1 chain: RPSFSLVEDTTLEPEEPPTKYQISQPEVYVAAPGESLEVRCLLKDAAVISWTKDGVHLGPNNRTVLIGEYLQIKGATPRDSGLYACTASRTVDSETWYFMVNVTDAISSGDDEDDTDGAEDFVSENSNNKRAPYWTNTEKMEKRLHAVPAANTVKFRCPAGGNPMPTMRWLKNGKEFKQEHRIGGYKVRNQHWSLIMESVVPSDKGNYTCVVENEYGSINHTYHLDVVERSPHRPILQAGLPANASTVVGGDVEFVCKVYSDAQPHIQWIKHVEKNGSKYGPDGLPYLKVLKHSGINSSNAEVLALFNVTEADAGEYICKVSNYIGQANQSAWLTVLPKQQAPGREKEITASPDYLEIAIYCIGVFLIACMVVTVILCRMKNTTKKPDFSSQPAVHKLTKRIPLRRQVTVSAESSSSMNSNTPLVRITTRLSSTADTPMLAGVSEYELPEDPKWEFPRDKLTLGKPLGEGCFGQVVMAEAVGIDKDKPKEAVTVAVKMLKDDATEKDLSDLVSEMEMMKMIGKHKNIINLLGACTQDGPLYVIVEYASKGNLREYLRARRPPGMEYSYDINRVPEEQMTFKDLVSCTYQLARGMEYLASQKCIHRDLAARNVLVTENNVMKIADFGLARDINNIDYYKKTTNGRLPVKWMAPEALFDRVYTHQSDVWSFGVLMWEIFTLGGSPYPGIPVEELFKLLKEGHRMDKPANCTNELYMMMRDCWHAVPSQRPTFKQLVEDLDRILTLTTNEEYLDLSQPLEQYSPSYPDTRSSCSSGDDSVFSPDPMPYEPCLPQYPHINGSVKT

hFGFR2b.mmh [2] = target: T2, hFGFR2b.mmh (human); experiment: SPR (Biacore), ADC captured by anti-human Fc, hFGFR2b-MMH as analyte, 25 C
T2 construct: also called Human FGFR2b with C-terminal myc-myc-hexahistidine tag
T2 chain: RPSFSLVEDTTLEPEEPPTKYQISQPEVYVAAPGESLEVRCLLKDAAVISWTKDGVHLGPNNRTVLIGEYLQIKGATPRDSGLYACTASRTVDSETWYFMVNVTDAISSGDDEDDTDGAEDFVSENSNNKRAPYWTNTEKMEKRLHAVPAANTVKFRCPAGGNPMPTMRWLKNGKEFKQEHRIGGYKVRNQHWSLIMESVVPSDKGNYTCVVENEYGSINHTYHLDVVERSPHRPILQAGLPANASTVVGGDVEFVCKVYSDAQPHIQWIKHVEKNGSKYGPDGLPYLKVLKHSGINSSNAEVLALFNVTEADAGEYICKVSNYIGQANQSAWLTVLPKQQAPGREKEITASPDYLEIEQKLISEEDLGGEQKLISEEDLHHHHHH
Description: (§1) The equilibrium dissociation constants (KD values) for hFGFR2b.mmh binding to anti-FGFR2 antibodies conjugated with Tubulysin (“tubulysin 1ALP”), Auristatin (“auristatin LP1”), or mc-VC-PAB-NMe-C3-May (“maytansinoid 1ALP”) were determined using a real-time surface plasmon resonance biosensor assay on a Biacore 2000 or a Biacore 4000 instrument. The Biacore sensor surface was derivatized by amine coupling with a monoclonal mouse anti-human Fc antibody (REGN2567 or Jackson Cat. No #109-005-098) to capture anti-FGFR2 ADC and parent unmodified antibodies expressed with human constant regions. Biacore binding studies were performed in HBS-EP running buffer (0.01M HEPES pH 7.4, 0.15M NaCl, 3 mM EDTA, 0.05% v/v Surfactant P20). Human FGFR2b and Human FGFR2c were prepared in-house expressing a C-terminal myc-myc-hexahistidine tag (hFGFR2b-MMH—SEQ ID NO: 57; hFGFR2c-MMH—SEQ ID NO: 58). […] Association of hFGFR2b-MMH or hFGFR2c-MMH to each of the captured ADCs and monoclonal antibodies was monitored for 4 minutes. Subsequently, dissociation was monitored for 10 minutes in HBS-EP running buffer. Anti-human Fc surface was regenerated by a brief injection of 20 mM H₃PO₄. All binding kinetic experiments were performed at 25° C. Kinetic association (kₐ) and dissociation (kd) rate constants were determined by fitting the real-time sensorgrams to a 1:1 binding model using Scrubber 2.0c curve fitting software. All sensorgrams were double referenced by subtracting buffer injection sensorgram signal from the corresponding analyte sensorgram, thereby removing artifacts caused by dissociation of the antibody from the capture surface. Binding dissociation equilibrium constants (KD) and dissociative half-lives (t½) were calculated from the kinetic rate constants as: […]

[3] = target: T1, FGFR2b on SNU-16 and MFM-223 cells; experiment: cell-based or functional assay
hFGFR2b.mmh [4] = target: T2, hFGFR2b.mmh; experiment: SPR (Biacore), antibody captured by anti-human Fc, hFGFR2b-MMH as analyte, 25 C
Description: as §1

hFGFR2c.mmh = target: T3, hFGFR2c.mmh (human, UniProt P21802 22-377); experiment: SPR (Biacore), antibody captured by anti-human Fc, hFGFR2c-MMH as analyte, 25 C
T3 construct: also called Human FGFR2c with C-terminal myc-myc-hexahistidine tag
Description: The equilibrium dissociation constants (KD values) for hFGFR2b.mmh binding to anti-FGFR2 antibodies conjugated with Tubulysin (“tubulysin 1ALP”), Auristatin (“auristatin LP1”), or mc-VC-PAB-NMe-C3-May (“maytansinoid 1ALP”) were determined using a real-time surface plasmon resonance biosensor assay on a Biacore 2000 or a Biacore 4000 instrument. The Biacore sensor surface was derivatized by amine coupling with a monoclonal mouse anti-human Fc antibody (REGN2567 or Jackson Cat. No #109-005-098) to capture anti-FGFR2 ADC and parent unmodified antibodies expressed with human constant regions. Biacore binding studies were performed in HBS-EP running buffer (0.01M HEPES pH 7.4, 0.15M NaCl, 3 mM EDTA, 0.05% v/v Surfactant P20). […] Association of hFGFR2b-MMH or hFGFR2c-MMH to each of the captured ADCs and monoclonal antibodies was monitored for 4 minutes. Subsequently, dissociation was monitored for 10 minutes in HBS-EP running buffer. […] Kinetic association (kₐ) and dissociation (kd) rate constants were determined by fitting the real-time sensorgrams to a 1:1 binding model using Scrubber 2.0c curve fitting software. […] Binding dissociation equilibrium constants (KD) and dissociative half-lives (t½) were calculated from the kinetic rate constants as: […]

Binder | IC50 (M), CellTiter-Glo cytotoxicity, MFM-223 cells, 6 days [1] | IC50 (M), CellTiter-Glo cytotoxicity, SNU-16 cells, 6 days [1] | Max % Kill, MFM-223 cells [1] | Max % Kill, SNU-16 cells [1] | Antigen Bound (RU) (hFGFR2b.mmh [2]) | t1/2 (hFGFR2b.mmh [2]) | IC50 (M), cytotoxicity, SNU-16 monoculture, 5 days (bystander assay) [3] | Max % Kill, SNU-16 monoculture (bystander assay) [3] | Kd (hFGFR2b.mmh [2]) | Kd (hFGFR2b.mmh [4]) | koff (hFGFR2b.mmh [4]) | kon (hFGFR2b.mmh [4]) | t1/2 (hFGFR2b.mmh [4]) | binding result (hFGFR2c.mmh) | Antigen Bound (RU) (hFGFR2c.mmh) | Antigen Bound (RU) (hFGFR2b.mmh [4])
mAb2-tubulysin 1ALP (antibody, V domains shown, deglycosylated; Q295 carries azido-PEG3-amine clicked to Tubulysin 1A-LP; DAR 2.1 per antibody, also called Anti FGFR2 mAb2-PEG3-N3-Tubulysin 1A-LP) VH: QVQLVESGGGVVQPGKSLRLSCAASGFTFSNYGMHWVRQTPVKGLEWVTLIWYDGSNKYYTDSVKGRFTISRDNSKNTLYLQMNSLRSEDTAVYYCAREGNWNYGHAFDIWGQGTMVTVSS VL: DIQMTQSPSTLSASVGDRVTITCRASQNIGNWLAWYQQKPGKAPNLLIYKASTLESGVPSRFSGSGSGTEFTLTISSLQPDDFATYNCQQYNSYSPTFGQGTKLEIKR | 6.36e-11 M | 3.7e-11 M | 90% | 95.3% | 32.7 RU | 9.8 min | 2.73e-11 M | 97.2% |  |  |  |  |  |  |  | 
mAb2-maytansinoid 1ALP (antibody, V domains shown, maytansinoid 1ALP (mc-VC-PAB-NMe-C3-May) linker-payload conjugated; residues not stated in Example 5; DAR 1.9 per antibody, it is written on the heavy chain only for want of a better place; also called FGFR2 maytansinoid ADC) VH: QVQLVESGGGVVQPGKSLRLSCAASGFTFSNYGMHWVRQTPVKGLEWVTLIWYDGSNKYYTDSVKGRFTISRDNSKNTLYLQMNSLRSEDTAVYYCAREGNWNYGHAFDIWGQGTMVTVSS VL: DIQMTQSPSTLSASVGDRVTITCRASQNIGNWLAWYQQKPGKAPNLLIYKASTLESGVPSRFSGSGSGTEFTLTISSLQPDDFATYNCQQYNSYSPTFGQGTKLEIKR | 1.72e-10 M | 2.06e-10 M | 91.1% | 95% | 31.3 RU | 13.1 min | 6.45e-10 M | 94.8% | 12.8 nM |  |  |  |  |  |  | 
mAb2 (antibody, V domains shown, also called anti-FGFR2 antibody mAb2; mAb2 (Unconjugated)) VH: QVQLVESGGGVVQPGKSLRLSCAASGFTFSNYGMHWVRQTPVKGLEWVTLIWYDGSNKYYTDSVKGRFTISRDNSKNTLYLQMNSLRSEDTAVYYCAREGNWNYGHAFDIWGQGTMVTVSS VL: DIQMTQSPSTLSASVGDRVTITCRASQNIGNWLAWYQQKPGKAPNLLIYKASTLESGVPSRFSGSGSGTEFTLTISSLQPDDFATYNCQQYNSYSPTFGQGTKLEIKR |  |  |  |  |  |  |  |  |  | 8.92 nM | 0.000447 s⁻¹ | 50100 M⁻¹ s⁻¹ | 25.8 min |  |  | 
mAb1-tubulysin 1ALP (antibody, human IgG4 S228P, kappa, V domains shown, deglycosylated; Q295 carries azido-PEG3-amine clicked to Tubulysin 1A-LP; DAR 2.1 per antibody, also called Anti FGFR2 mAb1-PEG3-N3-Tubulysin 1A-LP) VH: QVQLVESGGGVVQPGRSLRLSCAASGFTFSSYGMHWVRQAPGKGLEWVAVIWYDGSNKYYADSVKGRFTISRDNSKNTLYLQMNSLRAEDTAVYYCAREESSASGVDYWGQGTLVTVSS VL: EIVLTQSPGTLSLSPGERATLSCRASQSVSTRYLAWYQQKRGQAPRLLIYGASSRATGIPDRFSGSGSGTDFTLTISRLEPEDFAVYYCQEYGSSSITFGQGTRLEIKR | 1.25e-10 M | 4.34e-11 M | 91.1% | 95.4% | 36.4 RU | 7.4 min | 6.69e-11 M | 97.1% |  |  |  |  |  |  |  | 
mAb1 (antibody, human IgG4 S228P, kappa, V domains shown, also called anti-FGFR2 antibody mAb1; mAb1 (Unconjugated)) VH: QVQLVESGGGVVQPGRSLRLSCAASGFTFSSYGMHWVRQAPGKGLEWVAVIWYDGSNKYYADSVKGRFTISRDNSKNTLYLQMNSLRAEDTAVYYCAREESSASGVDYWGQGTLVTVSS VL: EIVLTQSPGTLSLSPGERATLSCRASQSVSTRYLAWYQQKRGQAPRLLIYGASSRATGIPDRFSGSGSGTDFTLTISRLEPEDFAVYYCQEYGSSSITFGQGTRLEIKR |  |  |  |  |  |  |  |  |  | 25 nM | 0.00104 s⁻¹ | 41700 M⁻¹ s⁻¹ | 11.1 min | no binding (tested: 30 nM (highest concentration injected)) |  | 
mAb1-maytansinoid 1ALP (antibody, V domains shown, maytansinoid 1ALP (mc-VC-PAB-NMe-C3-May) linker-payload conjugated; residues not stated in Example 5; DAR 2.5 per antibody, it is written on the heavy chain only for want of a better place) VH: QVQLVESGGGVVQPGRSLRLSCAASGFTFSSYGMHWVRQAPGKGLEWVAVIWYDGSNKYYADSVKGRFTISRDNSKNTLYLQMNSLRAEDTAVYYCAREESSASGVDYWGQGTLVTVSS VL: EIVLTQSPGTLSLSPGERATLSCRASQSVSTRYLAWYQQKRGQAPRLLIYGASSRATGIPDRFSGSGSGTDFTLTISRLEPEDFAVYYCQEYGSSSITFGQGTRLEIKR | 2.14e-10 M | 2.68e-10 M | 85.5% | 93.1% | 42.1 RU | 11.1 min |  |  | 41.8 nM |  |  |  |  |  |  | 
Comp1 (antibody, INN chains, looked up, V domains shown) VH: QVQLVQSGAEVKKPGSSVKVSCKASGYIFTTYNVHWVRQAPGQGLEWIGSIYPDNGDTSYNQNFKGRATITADKSTSTAYMELSSLRSEDTAVYYCARGDFAYWGQGTLVTVSS VL: DIQMTQSPSSLSASVGDRVTITCKASQGVSNDVAWYQQKPGKAPKLLIYSASYRYTGVPSRFSGSGSGTDFTFTISSLQPEDIATYYCQQHSTTPYTFGQGTKLEIK |  |  |  |  |  |  |  |  |  | 60.8 nM | 0.00471 s⁻¹ | 77400 M⁻¹ s⁻¹ | 2.5 min |  | 0.6 RU | 68.3 RU
